The results in this text go back to paper PMC6858569.

For this experiment, the target named is mouse TRPV3 with the single residue substitution Y564A (mouse). Put plainly: cryo-EM structure.

Broadly, the stoichiometry N is the number of molecules, sites or subunits per partner or assembly. With “mouse TRPV3 with the single residue substitution Y564A (natural protein)”, the stoichiometry N was 4.
